Laboratory results: publication PMC8595303, “Dramatic activation of an antibody by a single amino acid change in framework” (Scientific Reports, 2021)

Legend:
[1] = biological target: T1, human mature TGFβ2 (PeproTech) (Homo sapiens, UniProt P61812); experiment: cell-based or functional assay
human mature TGFβ3 [2] = biological target: T2, human mature TGFβ3 (Homo sapiens, UniProt P10600); experiment: cell-based or functional assay
human mature TGFβ1 = biological target: T3, human mature TGFβ1 (Homo sapiens, UniProt P01137); experiment: SPR; Biacore T200; antibody captured on a Protein A sensor chip (about 90 RU); mature TGFβ isoform injected, five-fold dilutions 0.008 nM to 5 nM; HBS-EP pH 7.4, 150 mM NaCl; 37 °C; 100 μl/min; 3 min association, 60 min dissociation; one-to-one Langmuir model, global fit; conditions: both partners purified
T3 construct: Transforming Growth Factor-beta 1, human, mature form (cut from the precursor); also called TGFb1; source: bought: PeproTech
T3 sequence (P01137 279-390): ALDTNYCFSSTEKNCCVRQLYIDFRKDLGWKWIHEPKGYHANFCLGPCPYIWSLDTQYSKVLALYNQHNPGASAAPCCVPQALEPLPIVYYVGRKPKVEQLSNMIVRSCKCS

[3] = biological target: T1, human mature TGFβ2 (PeproTech); experiment: as above; conditions: both partners purified
human mature TGFβ3 [4] = biological target: T2, human mature TGFβ3; experiment: as above; conditions: both partners purified

T1 sequence (P61812 303-414): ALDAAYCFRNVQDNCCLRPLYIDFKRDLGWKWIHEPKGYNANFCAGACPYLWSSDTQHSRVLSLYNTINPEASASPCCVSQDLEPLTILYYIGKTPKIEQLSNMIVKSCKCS
T2 sequence (P10600 301-412): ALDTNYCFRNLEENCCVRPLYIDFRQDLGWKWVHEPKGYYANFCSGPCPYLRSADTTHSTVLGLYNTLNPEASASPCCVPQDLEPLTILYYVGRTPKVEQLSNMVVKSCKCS

| TGFβ inhibition by HEK-Blue cells (IC50: nM), TGFb2; Blocking: Complete [1] | TGFβ inhibition by HEK-Blue cells (IC50: nM), TGFb3; Blocking: Complete (human mature TGFβ3 [2]) | Kd (human mature TGFβ1) | binding result (human mature TGFβ1) | Kd [3] | Kd (human mature TGFβ3 [4]) | TGFβ inhibition by HEK-Blue cells (IC50: nM), TGFb2; Blocking: Incomplete [1] | TGFβ inhibition by HEK-Blue cells (IC50: nM), TGFb3; Blocking: Incomplete (human mature TGFβ3 [2]) | Binder |
| --- | --- | --- | --- | --- | --- | --- | --- | --- |
| 0.7 nM | 0.1 nM | > 5 nM | no binding (tested: 5 nM) | 0.0022 nM | 0.0006 nM |  |  | h4A11.v2.1 (antibody, V domains shown, as the VH of m7 (h4A11.v2) with the stated change; numbers count on: Kabat numbering of the heavy chain; as the VL of m7 (h4A11.v2); human IgG1; also called v2.1_R19S; source: Expi293F, transient, purified (Protein A, SEC)) VH: EQQLVESGGGLVQPGGSLSLSCAVSGFSLSSYTVNWVRQAPGKGLEWIGYISYGGSAYYASWANGRFTISKDSAKNSVYLQMNSLRAEDTAVYFCARHMQVGGAPTGSMAAFDPWGPGTLVTVSS VL: DAQLTQSPSSLSASVGDRVTITCQSSQSVYNNNYLSWFQQKPGKPPKLLIYGASTLTSGVPSRFSGSGSGTDFTLTISSLQPEDFATYYCAGGYSGSSDKYAFGGGTKVEIK |
| 1.7 nM | 0.3 nM | > 5 nM | no binding (tested: 5 nM) | 0.0019 nM | 0.0005 nM |  |  | h4A11.v2.6 (antibody, V domains shown, as the VH of m7 (h4A11.v2) with the stated changes; numbers count on: Kabat numbering of the heavy chain; as the VL of m7 (h4A11.v2); human IgG1; also called v2.6_ R19S, Y79S, Q81S; source: Expi293F, transient, purified (Protein A, SEC)) VH: EQQLVESGGGLVQPGGSLSLSCAVSGFSLSSYTVNWVRQAPGKGLEWIGYISYGGSAYYASWANGRFTISKDSAKNSVSLSMNSLRAEDTAVYFCARHMQVGGAPTGSMAAFDPWGPGTLVTVSS VL: DAQLTQSPSSLSASVGDRVTITCQSSQSVYNNNYLSWFQQKPGKPPKLLIYGASTLTSGVPSRFSGSGSGTDFTLTISSLQPEDFATYYCAGGYSGSSDKYAFGGGTKVEIK |
| 0.7 nM | 0.1 nM | > 5 nM | no binding (tested: 5 nM) | 0.0017 nM | 0.0006 nM |  |  | h4A11.v2.5 (antibody, V domains shown, as the VH of m7 (h4A11.v2) with the stated changes; numbers count on: Kabat numbering of the heavy chain; as the VL of m7 (h4A11.v2); human IgG1; also called v2.5_ R19S, Q81S; source: Expi293F, transient, purified (Protein A, SEC)) VH: EQQLVESGGGLVQPGGSLSLSCAVSGFSLSSYTVNWVRQAPGKGLEWIGYISYGGSAYYASWANGRFTISKDSAKNSVYLSMNSLRAEDTAVYFCARHMQVGGAPTGSMAAFDPWGPGTLVTVSS VL: DAQLTQSPSSLSASVGDRVTITCQSSQSVYNNNYLSWFQQKPGKPPKLLIYGASTLTSGVPSRFSGSGSGTDFTLTISSLQPEDFATYYCAGGYSGSSDKYAFGGGTKVEIK |
| 1.7 nM | 0.7 nM | > 5 nM | no binding (tested: 5 nM) | 0.0034 nM | 0.0055 nM |  |  | h4A11.v2.3 (antibody, V domains shown, as the VH of m7 (h4A11.v2) with the stated change; numbers count on: Kabat numbering of the heavy chain; as the VL of m7 (h4A11.v2); human IgG1; also called v2.3_Q81A; source: Expi293F, transient, purified (Protein A, SEC)) VH: EQQLVESGGGLVQPGGSLRLSCAVSGFSLSSYTVNWVRQAPGKGLEWIGYISYGGSAYYASWANGRFTISKDSAKNSVYLAMNSLRAEDTAVYFCARHMQVGGAPTGSMAAFDPWGPGTLVTVSS VL: DAQLTQSPSSLSASVGDRVTITCQSSQSVYNNNYLSWFQQKPGKPPKLLIYGASTLTSGVPSRFSGSGSGTDFTLTISSLQPEDFATYYCAGGYSGSSDKYAFGGGTKVEIK |
| 2.2 nM | 0.2 nM | > 5 nM | no binding (tested: 5 nM) | 0.0014 nM | 0.0006 nM |  |  | h4A11.v2.4 (antibody, V domains shown, as the VH of m7 (h4A11.v2) with the stated changes; numbers count on: Kabat numbering of the heavy chain; as the VL of m7 (h4A11.v2); human IgG1; also called v2.4_ R19S, Y79S; source: Expi293F, transient, purified (Protein A, SEC)) VH: EQQLVESGGGLVQPGGSLSLSCAVSGFSLSSYTVNWVRQAPGKGLEWIGYISYGGSAYYASWANGRFTISKDSAKNSVSLQMNSLRAEDTAVYFCARHMQVGGAPTGSMAAFDPWGPGTLVTVSS VL: DAQLTQSPSSLSASVGDRVTITCQSSQSVYNNNYLSWFQQKPGKPPKLLIYGASTLTSGVPSRFSGSGSGTDFTLTISSLQPEDFATYYCAGGYSGSSDKYAFGGGTKVEIK |
| 2.2 nM | 0.4 nM | > 5 nM | no binding (tested: 5 nM) | 0.0045 nM | 0.006 nM |  |  | h4A11.v2.2 (antibody, V domains shown, as the VH of m7 (h4A11.v2) with the stated change; numbers count on: Kabat numbering of the heavy chain; as the VL of m7 (h4A11.v2); human IgG1; also called v2.2_Q81N; source: Expi293F, transient, purified (Protein A, SEC)) VH: EQQLVESGGGLVQPGGSLRLSCAVSGFSLSSYTVNWVRQAPGKGLEWIGYISYGGSAYYASWANGRFTISKDSAKNSVYLNMNSLRAEDTAVYFCARHMQVGGAPTGSMAAFDPWGPGTLVTVSS VL: DAQLTQSPSSLSASVGDRVTITCQSSQSVYNNNYLSWFQQKPGKPPKLLIYGASTLTSGVPSRFSGSGSGTDFTLTISSLQPEDFATYYCAGGYSGSSDKYAFGGGTKVEIK |
|  |  | > 5 nM | no binding (tested: 5 nM) | 0.0107 nM | 0.0405 nM | > 667 nM | > 667 nM | h4A11.v7.1 (antibody, V domains shown, as the VH of m12 (h4A11.v7); numbers count on: Kabat numbering of the heavy chain; as the VL of m12 (h4A11.v7); human IgG1; also called v7.1_S19R, S79Y; source: Expi293F, transient, purified (Protein A, SEC)) VH: EQQLQESGPGLVKPSETLRLTCTVTGFSLSSYTVNWVRQPAGKGLEWIGYISYGGSAYYASWANGRFTISKDSSKNQVYLKLSSVTAADTAVYFCARHMQVGGAPTGSMAAFDPWGPGTLVTVSS VL: EAVLTQSPGTLSLSPGERATLSCQSSQSVYNNNYLSWFQQKPGQPPRLLIYGASTLTSGVPDRFSGSGSGTDFTLTISRLEPEDFAVYYCAGGYSGSSDKYAFGGGTKVEIK |
|  |  | > 5 nM | no binding (tested: 5 nM) | 0.0056 nM | 0.0072 nM | > 667 nM | > 667 nM | h4A11.v7.5 (antibody, V domains shown, as the VH of m12 (h4A11.v7); numbers count on: Kabat numbering of the heavy chain; as the VL of m12 (h4A11.v7); human IgG1; also called v7.5_S19R, S79W, K81Q; source: Expi293F, transient, purified (Protein A, SEC)) VH: EQQLQESGPGLVKPSETLRLTCTVTGFSLSSYTVNWVRQPAGKGLEWIGYISYGGSAYYASWANGRFTISKDSSKNQVWLQLSSVTAADTAVYFCARHMQVGGAPTGSMAAFDPWGPGTLVTVSS VL: EAVLTQSPGTLSLSPGERATLSCQSSQSVYNNNYLSWFQQKPGQPPRLLIYGASTLTSGVPDRFSGSGSGTDFTLTISRLEPEDFAVYYCAGGYSGSSDKYAFGGGTKVEIK |
|  |  | > 5 nM | no binding (tested: 5 nM) | 0.0096 nM | 0.0228 nM | > 667 nM | > 667 nM | h4A11.v7.2 (antibody, V domains shown, as the VH of m12 (h4A11.v7); numbers count on: Kabat numbering of the heavy chain; as the VL of m12 (h4A11.v7); human IgG1; also called v7.2_S19R, S79W; source: Expi293F, transient, purified (Protein A, SEC)) VH: EQQLQESGPGLVKPSETLRLTCTVTGFSLSSYTVNWVRQPAGKGLEWIGYISYGGSAYYASWANGRFTISKDSSKNQVWLKLSSVTAADTAVYFCARHMQVGGAPTGSMAAFDPWGPGTLVTVSS VL: EAVLTQSPGTLSLSPGERATLSCQSSQSVYNNNYLSWFQQKPGQPPRLLIYGASTLTSGVPDRFSGSGSGTDFTLTISRLEPEDFAVYYCAGGYSGSSDKYAFGGGTKVEIK |
|  |  | > 5 nM | no binding (tested: 5 nM) | 0.0112 nM | 0.0188 nM | > 667 nM | > 667 nM | h4A11.v7.4 (antibody, V domains shown, as the VH of m12 (h4A11.v7); numbers count on: Kabat numbering of the heavy chain; as the VL of m12 (h4A11.v7); human IgG1; also called v7.4_S19R, S79Y, K81R; source: Expi293F, transient, purified (Protein A, SEC)) VH: EQQLQESGPGLVKPSETLRLTCTVTGFSLSSYTVNWVRQPAGKGLEWIGYISYGGSAYYASWANGRFTISKDSSKNQVYLRLSSVTAADTAVYFCARHMQVGGAPTGSMAAFDPWGPGTLVTVSS VL: EAVLTQSPGTLSLSPGERATLSCQSSQSVYNNNYLSWFQQKPGQPPRLLIYGASTLTSGVPDRFSGSGSGTDFTLTISRLEPEDFAVYYCAGGYSGSSDKYAFGGGTKVEIK |
|  |  | > 5 nM | no binding (tested: 5 nM) | 0.0057 nM | 0.008 nM | > 667 nM | > 667 nM | h4A11.v7.3 (antibody, V domains shown, as the VH of m12 (h4A11.v7); numbers count on: Kabat numbering of the heavy chain; as the VL of m12 (h4A11.v7); human IgG1; also called v7.3_S19R, S79Y, K81Q; source: Expi293F, transient, purified (Protein A, SEC)) VH: EQQLQESGPGLVKPSETLRLTCTVTGFSLSSYTVNWVRQPAGKGLEWIGYISYGGSAYYASWANGRFTISKDSSKNQVYLQLSSVTAADTAVYFCARHMQVGGAPTGSMAAFDPWGPGTLVTVSS VL: EAVLTQSPGTLSLSPGERATLSCQSSQSVYNNNYLSWFQQKPGQPPRLLIYGASTLTSGVPDRFSGSGSGTDFTLTISRLEPEDFAVYYCAGGYSGSSDKYAFGGGTKVEIK |
|  |  | > 5 nM | no binding (tested: 5 nM) | 0.0097 nM | 0.0156 nM | > 667 nM | > 667 nM | h4A11.v7.6 (antibody, V domains shown, as the VH of m12 (h4A11.v7); numbers count on: Kabat numbering of the heavy chain; as the VL of m12 (h4A11.v7); human IgG1; also called v7.6_S19R, S79W, K81R; source: Expi293F, transient, purified (Protein A, SEC)) VH: EQQLQESGPGLVKPSETLRLTCTVTGFSLSSYTVNWVRQPAGKGLEWIGYISYGGSAYYASWANGRFTISKDSSKNQVWLRLSSVTAADTAVYFCARHMQVGGAPTGSMAAFDPWGPGTLVTVSS VL: EAVLTQSPGTLSLSPGERATLSCQSSQSVYNNNYLSWFQQKPGQPPRLLIYGASTLTSGVPDRFSGSGSGTDFTLTISRLEPEDFAVYYCAGGYSGSSDKYAFGGGTKVEIK |
